Experiment: yeast display, Sf9 membrane polyspecificity reagent, FACS + sequencing; frameworks hold sequencing errors
Procedure, shortened: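 Using colony PCR, genes from sorted yeast display clones were amplified, then sequenced on MiSeq at 2 × 250 and filtered by CDR length. The clones had been stained with 10% biotinylated, detergent-solubilized Sf9 membrane reagent for 1 hour at 4 °C and sorted by FACS into low and high (top ~1%) gates on anti-HA and streptavidin fluorescence. Polyreactivity labels come from the gate of origin.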

Sequence	polyreactivity (PSR sort gate)
QVQVVESGGGLVQAGGSLRLSCAASGRTFGPYAMGWFRQAPGKEREFVAAISYSGGSTYYADSVKWRFTISRDNAKNTVYLQMNSLKPEDTAVYYCAAEGDYYDFISPPLDYWGQGTQVTVAS	low polyreactivity
QVQVVESGGGLVQAGGSLRLSCAASGRTFIGNAMGWYRQAPGKERELVAAMSRSGGSTSYADSVKGRFTISRDNAKNTVYLQMNSLKPEDTAVYYCAKGYRGYSYGYWGQGTQVSVSS	high polyreactivity
QVQVVESGGGLVQAGGSLRLSCAASGRTFRKNAMGWYRQAPGKERELVAAISSGGGSTYYADSVKGRFTISRDNAKNSDYLQINSLKPEDTAVYYCAVLVWYYDGYYSSYDYWGQGTQVTVSS	high polyreactivity
QVQVVESGGGLVQAGGSLRLSCAASGSIFGRYAMGWYRQAPGKERELVAGITRGGSPYYADSVKGRFTISRDNAKNTVYLQMNSLKPEDTAVYYCNRAARYGEYDYWGQGTQVTVSS	high polyreactivity
QVQVVESGGGLVQAGGSLRLSCAASGSIFHNNAMGWYRQAPGKERELVASITSRGGSTYYADSVKGRFTISRDNAKNTVYLQMNSLKPEDTAVYYCAARPYARVKTHGYWGQGTQVSVSS	low polyreactivity
QVQVVESGGGLVQAGGSLRLSCAASGSTFPVYAMGWYRQAPGKERELVAAISRSGASTYADSVKGRFTISRDNAKNTVYLQMNSLKPEDTAVYYCNKDPGNVSSYTGGGYWGQGTQVTVSS	low polyreactivity
QVQVVESGGGLVQAGGSLRLSCAASGSTFRYYAMGWYRQAPGKERELVAGISKVGGRTYADSVKGRFTISRDNAKYTVYLQMNSLKTEDTAVYYCAADAVRRTPGYDYWGHGTQVTVSS	high polyreactivity
QVQVVESGGGLVQAGGSLRLSCAASGSTFSSYVMGWYRQATGKERELVAAISSIGGSTYYADSVKGRFTISRDNAKITVYLQMNSLKPEDTAVYYCAAEPPGSTYEGGYWGQGTQVTVSS	low polyreactivity
QVQVVESGGGLVQAGGSLRLSCAPSGRIFTIYVMGWYRQAPGKERELVATITYSSGSTTYADSVKGRFTISRDNAKNTVYLQMNSLKPEDTAVYYCAKKYYTGYGYWGQGTQVTVSS	low polyreactivity
QVQVVESGGGLVQAVGSLRLSCAASGRIFRGNAMGWDRQAPRKERELVAAISRRSGSTYYADSVKGRFTISRDNAKNTVYLQMNSLIPEDTAVYYCAATSSLGDFSYDSWGQGTQVTESS	high polyreactivity
QVQVVESGGGLVQPGGSLRLSCAASGSTFGGKAMGWYRQATGKERELVAGITSSGTSTYYADSVKGRFTISRDNAKNTVFLQMNSLKPEDTAVYYCATDEAVESYGFELFDYWGQGTQVTVSS	low polyreactivity
QVQVVESGGGLVQPGGSLRVSCAASGSTFIAYVKGWSRQAPGKEWELVAAISWSGSNTYYADSVKGRFTISRDNAKITVYFQMNCLKPEDTAVYYCNARSFAPDKKYDYWGQGTQVTVSS	low polyreactivity
QVRLVESAGGIVQAGGSLRLSCAASGRTFSVHAMGWYTQAPGKERELVAAISWDGGSTYYGDSVKGRFTISRDNSKNTVYLQMNSLKPEDTAVYYCYKELYYAYDYWGLGTQVTVSS	low polyreactivity
QVRLVESGGGLVQAGGSLRLSCAASGRIFLYNARGWYRQAPGKERELVAAINLSDVDTYYADSVKGRFTISRDNAKNTVYLQMNSLKPEDTAVYYCAADGIYWSTIGYYWGQGTQVTVSS	low polyreactivity
QVWLQESGGGLVQACGSLRLSCAASGTISRDIFMGWYRQAPGKEREFVATIAQGGITNYADSVKGRFTISRDNAKNTLYLQMNSVKPGDTAVYYCAARDGNCYWFYYWGQGTQVTVSS	high polyreactivity
QVWLQESGGGLVQACGSLRLSCAASGTISRDIFMGWYRQAPGKEREFVATIAQGGITNYADSVKGRFTISRDNAKNTVYLQMNSVKPGDTAVYYCAARDGNCYWFYYGGQGTQVTVSS	high polyreactivity
QYQLVESGGGLVQAGGSLRLICAASGRIINKKAMGRYRHAPGKERELVAAITSSGGSTYYADSVKGRFTISRDNAKNTVYLQMNSLKPEDTAVYYCAAYAYGRFGKLNYWGQGTQVTVSS	low polyreactivity
QYQLVESGGGLVQAGGSLRLSCAASGSTFRANTMGWYRQAPGKERELVSTITRGTITKYADSVKGRFTISRDNAKNPVYLQMNSLKAEDTAVFDCAVDQAYVRRNWGYTGYVTYDHWGQGTQVTVSS	high polyreactivity
QYQLVESGGGLVQAGGSLSLSCAASATTFSAYAMGWYRQAPGKERELVAAISASGGSTYYADSVKGRFTISRDNAKNTVYLQMNSLKPEDNAVYFCNADRWKYELDYCGQGTQVTVSS	high polyreactivity
RVQLQESGGGLVQAGGSLRLSCAASGNIFDTDIMGWYRQAPGKESELVASITDGGSTTYADSEKGRFTISRDNAKNTVYLQMNSLKPEDTAVYYCAADQGRYGIIGWDDYWGQGTQVTVSS	low polyreactivity
RVQLQESGGGLVQAGGSLRLSCAASGTIFIRGDMGWYRQAPGKEREFVASIDTGSNTYYADSEKGRFTISRDNAKNAVYLQMNCLKPGDTAVYYCVVDYQLSGRLRYWGQGTQVTLSS	low polyreactivity
RVQLVESGGGLVQAGGSLRLSCAASGSIFRGYAMGWYRQAPGKERGLVAAITSGGSTNYADSVKGRFTISRDNAKNTVYLQMNSLKPEDTAVYYCAKDLALVAPLSDYWGQGTQVTVSS	low polyreactivity

— the nanobody polyreactivity screen of Harvey et al. (2022)
